US20050130232A1, “Methods of screening for compounds that modulate hormone receptor activity” (Allergan, Inc., priority 2001, published 2005)
Values belong to the substance of their own block, whether it stands above or below them.

What was measured:
[1] = target: Flag-tagged PH-RXRα (Flag tag, pleckstrin homology domain of human insulin receptor substrate-1, human RXRα) (UniProt P35568)
[2] = system: T1, Flag-RXRα (human retinoid X receptor α fused to the Flag epitope tag)
T1 sequence: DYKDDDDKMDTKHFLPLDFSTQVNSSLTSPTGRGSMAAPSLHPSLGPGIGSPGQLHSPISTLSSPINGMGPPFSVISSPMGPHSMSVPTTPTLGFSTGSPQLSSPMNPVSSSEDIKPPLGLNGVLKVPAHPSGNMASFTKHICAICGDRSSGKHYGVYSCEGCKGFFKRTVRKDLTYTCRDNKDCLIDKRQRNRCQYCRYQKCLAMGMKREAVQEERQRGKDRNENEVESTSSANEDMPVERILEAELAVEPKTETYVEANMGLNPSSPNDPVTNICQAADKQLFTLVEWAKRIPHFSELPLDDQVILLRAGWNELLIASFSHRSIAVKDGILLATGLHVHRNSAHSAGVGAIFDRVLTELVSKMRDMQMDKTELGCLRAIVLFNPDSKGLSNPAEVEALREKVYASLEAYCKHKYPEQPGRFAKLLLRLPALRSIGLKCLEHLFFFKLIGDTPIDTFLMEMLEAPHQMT

[3] = target: protein kinase A activity endogenous to HEK 293 cells (co-immunoprecipitated with tagged RXRα); experiment: cell-based or functional assay
[4] = system: protein kinase A activity associated with RXRα; experiment: Protein kinase A activity in anti-Flag immunoprecipitates of PH-RXRα or RXRα transfected HEK 293 cells, synthetic peptide substrate; format: cell-based, human; details: PH-RXRα, ligand-treated cells, inhibitor added to kinase reaction, substrate LRRASLG
Procedure: 293 cells were transfected with PH-RXRα. Sample 1: 0.1% DMSO (10 minutes). […] Sample 3: 0.1% DMSO (30 minutes).
Sample 1: 0.1% DMSO (10 minutes). […] Sample 3: 0.1% DMSO (30 minutes). […] Sample 5: No immunoprecipitate.
Sample 1: 0.1% DMSO. […] Sample 3: 0.1% DMSO with PKA inhibitor. […] Sample 5: 0.1% DMSO.
Following immunoprecipitation with anti-Flag antibody, the synthetic PKA substrate, LRRASLG (SEQ ID NO: 59), was added to the immunoprecipitate along with γ-ATP.
HEK 293 were cultured and transfected essentially as described above. Immunoprecipitates were prepared using the anti-Flag antibody, M2, as described above. Assays for protein kinase A activity were performed as follows. Immunoprecipitated complexes were resuspended in 40 μl of Kinase Assay Buffer (30 mM Tris-HCl, pH 7.4 and 10 mM MgCl2). Kinase reactions were initiated by addition of 10 μl of 500 μM synthetic peptide LRRASLG (SEQ ID NO: 59) or […] (SEQ ID NO: 60) prepared by Upstate Biotechnology (Lake Placid, N.Y.) and addition of 50 μM [γ-^32P]ATP (10 μCi) to the immune-complexes. […]
Incorporated ^32P was separated from free label by applying the reaction mixture onto P81 phosphocellulose paper and subsequently washing the paper three times with 0.75% phosphoric acid and once with acetone. Protein kinase reaction samples were analyzed in a scintillation counter to determine the amount of ^32P-incorporation.

[5] = target: T2, RXRα phosphorylation by protein kinase A (Homo sapiens, UniProt P19793); experiment: Phosphorylation of immunoprecipitated RXRα by purified PKA; format: biochemical; details: inhibitor added to kinase reaction
T2 construct: host or cells: HEK293
T2 sequence (P19793 1-462): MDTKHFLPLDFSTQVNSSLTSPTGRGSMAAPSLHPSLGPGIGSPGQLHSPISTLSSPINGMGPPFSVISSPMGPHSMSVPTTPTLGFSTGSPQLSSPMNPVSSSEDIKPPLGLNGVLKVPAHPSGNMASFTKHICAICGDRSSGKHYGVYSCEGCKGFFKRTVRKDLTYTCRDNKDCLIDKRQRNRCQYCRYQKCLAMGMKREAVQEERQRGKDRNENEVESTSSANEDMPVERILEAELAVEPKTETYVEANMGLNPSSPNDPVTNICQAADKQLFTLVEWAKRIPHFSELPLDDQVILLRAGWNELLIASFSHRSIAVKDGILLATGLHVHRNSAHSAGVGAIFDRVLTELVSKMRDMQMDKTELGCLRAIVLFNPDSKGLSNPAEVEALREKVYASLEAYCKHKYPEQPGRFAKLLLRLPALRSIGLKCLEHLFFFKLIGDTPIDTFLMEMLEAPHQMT
Procedure: Left panel: Cells were immunoprecipitated with anti-FLAG antibody, and the immunoprecipitates analyzed by SDS-PAGE and blotting with anti-PKA antibody. Right panel: Cells were immunoprecipitated with anti-PKA antibody, and the immunoprecipitates analyzed by SDS-PAGE and blotting with anti-FLAG antibody. B. Phosphorylation of RXRα by PKA. […] PKA I and PKC I indicate inhibitors of PKA and PKC, respectively.
RXRα-containing immunoprecipitates prepared with anti-Flag antibody were incubated with purified catalytically active PKA (Upstate Biotechnology) and […]; in addition, protein kinase A inhibitor or protein kinase C inhibitor was added to some reactions as indicated. The kinase reaction products were analyzed by SDS-PAGE.

[6] = system: protein kinase A; details: specific PKA substrate; cited from earlier work
[7] = system: protein kinase A; experiment: Km of synthetic peptide substrates for protein kinase A; format: biochemical
[8] = target: protein kinase A activity endogenous to 3T3-L1 adipocytes; experiment: cell-based or functional assay

Substance: protein kinase A activity endogenous to HEK 293 cells (co-immunoprecipitated with tagged RXRα)
protein kinase A activity in anti-Flag immunoprecipitates (32P incorporation into LRRASLG) [1]: significantly more protein kinase A activity was detected in immunoprecipitates from cells treated with AGN194024 ligand than in immunoprecipitates treated with control vehicle
protein kinase A activity in anti-Flag immunoprecipitates (32P incorporation into LRRASLG) [2]: protein kinase A activity associated with RXRα lacking a fused pleckstrin homology domain was significantly enhanced in cells treated with 10^-7 M AGN194204 as compared to control vehicle

Substance: purified catalytically active PKA (Upstate Biotechnology)
in vitro phosphorylation of immunoprecipitated RXRα by purified PKA (SDS-PAGE) [2]: RXRα was phosphorylated, and the extent of phosphorylation was increased by addition of RXRα ligand, AGN194204

Substance: Flag-tagged PH-RXRα (Flag tag, pleckstrin homology domain of human insulin receptor substrate-1, human RXRα) (from UniProt P35568 12-115)
protein kinase A activity in anti-FLAG immunoprecipitates (32P incorporation into …), AGN194204-treated against DMSO-treated cells [3]: > 2 fold

Substance: endogenous RXRα of untransfected 3T3-L1 adipocytes (from UniProt P28700 1-467) (receptor)
PKA activity in anti-RXRα (D20) immunoprecipitates (32P incorporation into SEQ ID NO: 59), ligand-treated against vehicle-treated cells [8]: 2 fold

Now from value to substance, other results behind:

inhibition of RXRα phosphorylation by purified PKA [5]: not
Substance: RFARKGALRGKNV
inhibition of RXRα-associated PKA activity [4]: not

fold higher Vmax than kemptide ([7]; relative to kemptide): about 2 fold
fold lower Km than kemptide ([7]; relative to kemptide (SEQ ID NO: 59)): approximately 40 fold
Substance: GRTGRRNSI [SEQ ID NO: 60, specific protein kinase A substrate]
Km [6]: 0.11 µM
